From patent US20260242839A1, “GLYCOSIDE PRODUCT BIOSYNTHESIS AND RECOVERY” (Manus Bio Inc., priority 2023, published 2026)
Positions count from the first letter of the chain named. In names and notes the source's numbering stands.

Test system: steviol glycoside
Assay: steviol glycoside bioconversion by E. coli expressing individual mutations of UGT SEQ ID NO: 14
Format: cell-based
Details: fold improvement of % conversion vs parent UGT SEQ ID NO: 14; stevia leaf extract and glucose fed; 37° C., 48 hr
Procedure: Fold improvement is with respect to % steviol glycoside conversion of the parent UGT enzyme of SEQ ID NO: 14. The UGT enzyme of SEQ ID NO: 15 has the following mutations from SEQ ID NO: 14: ins_A2_T3_RR, H59P, A238E, L417F. Stevia leaf extract and glucose were fed to the bioconversion strains. Bioconversion took place at 37° C. for 48 hr. Data were quantified by reverse phase LC DAD to quantify conversion of steviol glycosides.
Fold improvement (FI) is with respect to % steviol glycoside conversion.

B1: S29T: mutation to UGT enzyme of SEQ ID NO: 14 (protein)
chain: MATKNSSGMSLAERFWLTLSRSSLVVGRTCVEFEPETVPLLSTLRGKPITFLGLMPPLHEGRREDGEDATVRWLDAQPAKSVVYVALGSEVPLGVEKVHELALGLELAGTRFLWALRKPTGVSDADLLPAGFEERTRGRGVVATRWVPQMSILAHAAVGAFLTHCGWNSTIEGLMFGHPLIMLPITGDQGPNARLIEAKNAGLQVARNDGDGSFDREGVAAAIRAVAVEEESSKVFQAKAKKLQEIVADMACHERYIDGFIQQLRSYKDDSGYSSSYAAAAGMHVVICPWLAFGHLLPCLDLAQRLASRGHRVSFVSTPRNISRLPPVRPALAPLVAFVALPLPRVEGLPDGAESTNDVPHDRPDMVELHRRAFDGLAAPFSEFLGTACADWVIVDSFHHWAAAAALEHKVPCAMMLLGSAEMIASIADERLEHAETESPAAAGQGRPAAAPTFEVARMKLIR
- FI %Stevioside→rebE: 1.05
- FI %rebA→rebD: 1.00

B2: S308Q: mutation to UGT enzyme of SEQ ID NO: 14 (protein)
chain: B1 chain with T29S, S308Q
- FI %Stevioside→rebE: 1.6
- FI %rebA→rebD: 1.6

B3: S151R: mutation to UGT enzyme of SEQ ID NO: 14 (protein)
chain: B1 chain with T29S, S151R
- FI %Stevioside→rebE: 1.6
- FI %rebA→rebD: 1.5

B4: Y267H: mutation to UGT enzyme of SEQ ID NO: 14 (protein)
chain: B1 chain with T29S, Y267H
- FI %Stevioside→rebE: 1.8
- FI %rebA→rebD: 1.6

B5: F51W: mutation to UGT enzyme of SEQ ID NO: 14 (protein)
chain: B1 chain with T29S, F51W
- FI %Stevioside→rebE: 1.7
- FI %rebA→rebD: 1.4

B6: Q262E: mutation to UGT enzyme of SEQ ID NO: 14 (protein)
chain: B1 chain with T29S, Q262E
- FI %Stevioside→rebE: 2.0
- FI %rebA→rebD: 1.7

B7: V336I_F338L: mutation to UGT enzyme of SEQ ID NO: 14 (protein)
chain: B1 chain with T29S, V336I, F338L
- FI %Stevioside→rebE: 1.5
- FI %rebA→rebD: 1.4

B8: S323A: mutation to UGT enzyme of SEQ ID NO: 14 (protein)
chain: B1 chain with T29S, S323A
- FI %Stevioside→rebE: 1.3
- FI %rebA→rebD: 1.3

B9: E254D: mutation to UGT enzyme of SEQ ID NO: 14 (protein)
chain: B1 chain with T29S, E254D
- FI %Stevioside→rebE: 1.7
- FI %rebA→rebD: 1.5

B10: S123D: mutation to UGT enzyme of SEQ ID NO: 14 (protein)
chain: B1 chain with T29S, S123D
- FI %Stevioside→rebE: 1.7
- FI %rebA→rebD: 1.5

B11: W401F: mutation to UGT enzyme of SEQ ID NO: 14 (protein)
chain: B1 chain with T29S, W401F
- FI %Stevioside→rebE: 1.3
- FI %rebA→rebD: 1.3

B12: L417M: mutation to UGT enzyme of SEQ ID NO: 14 (protein)
chain: B1 chain with T29S, L417M
- FI %Stevioside→rebE: 1.02
- FI %rebA→rebD: 1.02

B13: L203I: mutation to UGT enzyme of SEQ ID NO: 14 (protein)
chain: B1 chain with T29S, L203I
- FI %Stevioside→rebE: 1.6
- FI %rebA→rebD: 1.5

B14: V95Q: mutation to UGT enzyme of SEQ ID NO: 14 (protein)
chain: B1 chain with T29S, V95Q
- FI %Stevioside→rebE: 1.8
- FI %rebA→rebD: 1.6

B15: T3R: mutation to UGT enzyme of SEQ ID NO: 14 (protein)
chain: B1 chain with T3R, T29S
- FI %Stevioside→rebE: 1.9
- FI %rebA→rebD: 1.6

B16: L58S: mutation to UGT enzyme of SEQ ID NO: 14 (protein)
chain: B1 chain with T29S, L58S
- FI %Stevioside→rebE: 1.5
- FI %rebA→rebD: 1.4

B17: T453M: mutation to UGT enzyme of SEQ ID NO: 14 (protein)
chain: B1 chain with T29S, T453M
- FI %Stevioside→rebE: 1.7
- FI %rebA→rebD: 1.5

B18: M250D_A251E_C252V: mutation to UGT enzyme of SEQ ID NO: 14 (protein)
chain: B1 chain with T29S, M250D, A251E, C252V
- FI %Stevioside→rebE: 1.5
- FI %rebA→rebD: 1.4

B19: A238E: mutation to UGT enzyme of SEQ ID NO: 14 (protein)
chain: B1 chain with T29S, A238E
- FI %Stevioside→rebE: 1.9
- FI %rebA→rebD: 1.6

B20: A79P: mutation to UGT enzyme of SEQ ID NO: 14 (protein)
chain: B1 chain with T29S, A79P
- FI %Stevioside→rebE: 1.4
- FI %rebA→rebD: 1.3

B21: G94T: mutation to UGT enzyme of SEQ ID NO: 14 (protein)
chain: B1 chain with T29S, G94T
- FI %Stevioside→rebE: 1.6
- FI %rebA→rebD: 1.4

B22: T186M: mutation to UGT enzyme of SEQ ID NO: 14 (protein)
chain: B1 chain with T29S, T186M
- FI %Stevioside→rebE: 1.5
- FI %rebA→rebD: 1.4

B23: ins_A2_T3_RR: SEQ ID NO: 14 with insertion of Arg-Arg between A2 and T3 (protein)
chain: MARRTKNSSGMSLAERFWLTLSRSSLVVGRSCVEFEPETVPLLSTLRGKPITFLGLMPPLHEGRREDGEDATVRWLDAQPAKSVVYVALGSEVPLGVEKVHELALGLELAGTRFLWALRKPTGVSDADLLPAGFEERTRGRGVVATRWVPQMSILAHAAVGAFLTHCGWNSTIEGLMFGHPLIMLPITGDQGPNARLIEAKNAGLQVARNDGDGSFDREGVAAAIRAVAVEEESSKVFQAKAKKLQEIVADMACHERYIDGFIQQLRSYKDDSGYSSSYAAAAGMHVVICPWLAFGHLLPCLDLAQRLASRGHRVSFVSTPRNISRLPPVRPALAPLVAFVALPLPRVEGLPDGAESTNDVPHDRPDMVELHRRAFDGLAAPFSEFLGTACADWVIVDSFHHWAAAAALEHKVPCAMMLLGSAEMIASIADERLEHAETESPAAAGQGRPAAAPTFEVARMKLIR
- FI %Stevioside→rebE: 2.4
- FI %rebA→rebD: 2.0

B24: ins_A2_T3_R: SEQ ID NO: 14 with insertion of Arg between A2 and T3 (protein)
chain: MARTKNSSGMSLAERFWLTLSRSSLVVGRSCVEFEPETVPLLSTLRGKPITFLGLMPPLHEGRREDGEDATVRWLDAQPAKSVVYVALGSEVPLGVEKVHELALGLELAGTRFLWALRKPTGVSDADLLPAGFEERTRGRGVVATRWVPQMSILAHAAVGAFLTHCGWNSTIEGLMFGHPLIMLPITGDQGPNARLIEAKNAGLQVARNDGDGSFDREGVAAAIRAVAVEEESSKVFQAKAKKLQEIVADMACHERYIDGFIQQLRSYKDDSGYSSSYAAAAGMHVVICPWLAFGHLLPCLDLAQRLASRGHRVSFVSTPRNISRLPPVRPALAPLVAFVALPLPRVEGLPDGAESTNDVPHDRPDMVELHRRAFDGLAAPFSEFLGTACADWVIVDSFHHWAAAAALEHKVPCAMMLLGSAEMIASIADERLEHAETESPAAAGQGRPAAAPTFEVARMKLIR
- FI %Stevioside→rebE: 1.9
- FI %rebA→rebD: 1.6
